Measurements from paper PMC6970277.

Tested on: DosR (His6-DosR, pre-phosphorylated with acetyl phosphate) (Mycobacterium tuberculosis)
Experiment: EMSA

hspX promoter probe gave a binding signal (fold inhibition of binding vs DMSO) of 22.
